Assay results reported in patent publication US20090148437A1.
Values joined by “and” are separate entries in the source; they are usually repeats but may differ in a detail not shown here. Identical values can stand only once. Blank lines part the entries; values can stand above or below the binder they belong to.

Experiments:
TNFR1 on MRC-5 cells = TNFR1 on MRC-5 cells (UniProt P19438); assay: cell-based or functional assay
[1] = target: IL-R1-Fc (a fusion of IL-1RI and Fc) (UniProt P14778); assay: phage-displayed dAb: trypsin 10 µg/ml 1 hr room temp, then biopanning on 1 nM IL-R1-Fc
Chain of IL-R1-Fc (a fusion of IL-1RI and Fc) (P14778 18-336 limits assumed): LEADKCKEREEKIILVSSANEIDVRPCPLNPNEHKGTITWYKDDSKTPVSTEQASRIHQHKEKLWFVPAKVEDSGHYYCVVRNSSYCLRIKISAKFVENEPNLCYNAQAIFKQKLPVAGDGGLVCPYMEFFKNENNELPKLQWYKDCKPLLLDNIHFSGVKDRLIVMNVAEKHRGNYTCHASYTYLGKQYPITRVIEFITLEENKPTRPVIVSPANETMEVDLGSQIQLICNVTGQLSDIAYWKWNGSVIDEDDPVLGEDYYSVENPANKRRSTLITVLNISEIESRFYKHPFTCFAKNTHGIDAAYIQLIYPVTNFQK

[2] = target: IL-R1-Fc (a fusion of IL-1RI and Fc) (UniProt P14778); assay: phage-displayed dAb: no trypsin overnight room temp, biopanning on 1 nM IL-R1-Fc
[3] = target: IL-R1-Fc (a fusion of IL-1RI and Fc) (UniProt P14778); assay: phage-displayed dAb: trypsin 100 µg/ml overnight 37 C, then biopanning on 1 nM IL-R1-Fc
[4] = target: IL-R1-Fc (a fusion of IL-1RI and Fc) (UniProt P14778); assay: phage-displayed dAb: trypsin 10 µg/ml overnight 37 C, then biopanning on 1 nM IL-R1-Fc
[5] = target: IL-R1-Fc (a fusion of IL-1RI and Fc) (UniProt P14778); assay: phage-displayed dAb: no trypsin overnight 37 C, biopanning on 1 nM IL-R1-Fc
[6] = target: IL-R1-Fc (a fusion of IL-1RI and Fc) (UniProt P14778); assay: phage-displayed dAb: no trypsin 1 hr room temp, biopanning on 1 nM IL-R1-Fc
[7] = target: IL-R1-Fc (a fusion of IL-1RI and Fc) (UniProt P14778); assay: phage-displayed dAb: trypsin 100 µg/ml overnight room temp, then biopanning on 1 nM IL-R1-Fc
[8] = target: IL-R1-Fc (a fusion of IL-1RI and Fc) (UniProt P14778); assay: phage-displayed dAb: trypsin 100 µg/ml 1 hr room temp, then biopanning on 1 nM IL-R1-Fc
IL-1R1 = IL-1R1 (UniProt P14778); assay: Receptor Binding Assay, inhibition of IL-1 binding to IL-R1 (column head says nM, cell says pM)
Chain of IL-1R1 (P14778 18-332 limits assumed): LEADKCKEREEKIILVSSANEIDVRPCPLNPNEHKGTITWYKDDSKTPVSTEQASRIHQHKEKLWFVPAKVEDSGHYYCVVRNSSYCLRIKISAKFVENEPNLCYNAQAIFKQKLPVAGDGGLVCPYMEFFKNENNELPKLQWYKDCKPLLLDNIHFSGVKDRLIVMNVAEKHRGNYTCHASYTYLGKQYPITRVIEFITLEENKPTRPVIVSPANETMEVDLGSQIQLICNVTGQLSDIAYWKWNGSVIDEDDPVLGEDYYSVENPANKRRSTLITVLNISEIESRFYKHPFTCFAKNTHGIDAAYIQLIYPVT

[9] = target: IL-R1-Fc (a fusion of IL-1RI and Fc) (UniProt P14778); assay: phage-displayed dAb: trypsin 10 µg/ml overnight room temp, then biopanning on 1 nM IL-R1-Fc
[10] = target: human VEGF (human vascular endothelial growth factor) (human) (UniProt P15692); assay: phage-displayed dAb, expt 2 (input 10^9): trypsin 100 µg/ml 2 hr 37 C 250 rpm, then capture on biotinylated rhVEGF
Chain of human VEGF (human vascular endothelial growth factor) (human) (P15692 other isoform, or with tags, fused parts or gaps limits assumed): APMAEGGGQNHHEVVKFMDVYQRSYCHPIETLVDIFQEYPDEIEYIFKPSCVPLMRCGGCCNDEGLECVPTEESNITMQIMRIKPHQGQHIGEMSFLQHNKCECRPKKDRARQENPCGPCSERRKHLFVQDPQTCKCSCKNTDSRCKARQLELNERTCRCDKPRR

[11] = target: human VEGF (human vascular endothelial growth factor) (human) (UniProt P15692); assay: phage-displayed dAb, expt 1 (input 10^10): trypsin 100 µg/ml 1 hr room temp, then capture on 50 nM biotinylated rhVEGF + streptavidin beads
[12] = target: human VEGF (human vascular endothelial growth factor) (human) (UniProt P15692); assay: BIAcore kinetics
[13] = target: human VEGF (human vascular endothelial growth factor) (human) (UniProt P15692); assay: phage-displayed dAb, expt 2 (input 10^9): trypsin 100 µg/ml 1 hr 37 C 250 rpm, then capture on biotinylated rhVEGF
[14] = target: human VEGF (human vascular endothelial growth factor) (human) (UniProt P15692); assay: phage-displayed dAb, expt 2 (input 10^9): no trypsin 2 hr 37 C 250 rpm, capture on biotinylated rhVEGF
[15] = target: human VEGF (human vascular endothelial growth factor) (human) (UniProt P15692); assay: phage-displayed dAb, expt 1 (input 10^10): no trypsin (0 µg/ml) 1 hr room temp, capture on 50 nM biotinylated rhVEGF
[16] = target: human VEGF (human vascular endothelial growth factor) (human) (UniProt P15692); assay: receptor binding assay (inhibition of VEGF binding to VEGFR2)
[17] = target: human VEGF (human vascular endothelial growth factor) (human) (UniProt P15692); assay: monoclonal phage ELISA on biotinylated hVEGF (neutravidin plate) after 100 ug/ml trypsin 1 h 37 C
[18] = target: human VEGF (human vascular endothelial growth factor) (human) (UniProt P15692); assay: phage-displayed dAb, expt 1 (input 10^10): trypsin 10 µg/ml 1 hr room temp, then capture on 50 nM biotinylated rhVEGF

Chain of TNFR1 on MRC-5 cells (P19438 30-455 limits assumed): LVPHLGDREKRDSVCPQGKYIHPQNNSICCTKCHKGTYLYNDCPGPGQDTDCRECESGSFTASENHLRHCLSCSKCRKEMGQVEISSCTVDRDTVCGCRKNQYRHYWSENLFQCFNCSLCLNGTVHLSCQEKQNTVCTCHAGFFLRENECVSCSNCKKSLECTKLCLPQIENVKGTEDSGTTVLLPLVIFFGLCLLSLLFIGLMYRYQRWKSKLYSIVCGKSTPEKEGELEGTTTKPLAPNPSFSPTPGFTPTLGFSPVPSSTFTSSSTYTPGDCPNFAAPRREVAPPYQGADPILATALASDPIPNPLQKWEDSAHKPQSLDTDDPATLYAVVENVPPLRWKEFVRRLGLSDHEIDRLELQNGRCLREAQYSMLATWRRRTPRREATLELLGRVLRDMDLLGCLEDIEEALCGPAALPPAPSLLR

B1: DOM1h-131-511 (protein)
VH: EVQLLESGGGLVQPGGSLRLSCAASGFTFAHETMVWVRQAPGKGLEWVSHIPPVGQDPFYADSVKGRFTISRDNSKNTLYLQMNSLRAEDTAVYYCALLPKRGPWFDYWGQGTLVTVSS
ND50, MRC-5 cell-based assay (IL-8 release) (TNFR1 on MRC-5 cells): 1.98 nM and 1.71 nM and 1.46 nM | ND50, MRC-5 cell-based assay (IL-8 release); sample DOM1h-131-511 (230307CE) (TNFR1 on MRC-5 cells): 1.89 nM

B3: DOM1h-131-204 (protein, from a related filing)
VH: EVQLSESGGGLVQPGGSLRLSCAASGFTFAHETMVWVRQAPGKGLEWVSHIPPDGQDPFYADSVKGRFTISRDNSKNTLYLQMNSLRAEDTAVYYCALLPNRGPWFDYWGQGTLVTVSS
ND50, MRC-5 cell-based assay (IL-8 release); sample DOM1h-131-204 (230307CE) (TNFR1 on MRC-5 cells): 1.89 nM

B4: DOM4-130-54 (protein, from a related filing)
VL: DIQMTQSPSSLSASVGDRVTITCRASQDIYLNLDWYQQKPGKAPKLLINFGSELQSGVPSRFSGSGYGTDFTLTISSLQPEDFATYYCQPSFYFPYTFGQGTKVEIKR
output phage titre [1]: 7.2e+09 | output phage titre [2]: 7.8e+09 | output phage titre [3]: 2.04e+06 | output phage titre [4]: 3.84e+08 | output phage titre [5]: 7.2e+09 | output phage titre [6]: 6.6e+09 | output phage titre [7]: 2.16e+09 | output phage titre [8]: 1.8e+10 | IC50 (IL-1R1): 0.28 nM | output phage titre [9]: 7.2e+09

B7: DOM15-10 (protein, from a related filing)
VL: DIQMTQSPSSLSASVGDRVTITCRASQWIGPELSWYQQKPGKAPKLLIYHTSILQSGVPSRFSGSGSGTDFTLTISSLQPEDFATYYCQQYMFQPRTFGQGTKVEIRR
output phage titre [10]: 10000 | output phage titre [11]: 1.1e+07 | Kd [12]: 23.6 nM | output phage titre [13]: 100000 | output phage titre [14]: 3e+08 | output phage titre [15]: 7e+07 | EC50 [16]: 10.2 nM | OD450 [17]: < 0.404 | output phage titre [18]: 2.4e+08

Other lines, results leading:

ND50, MRC-5 cell-based assay (IL-8 release); sample DOM1h-131-203 (230307CE) (TNFR1 on MRC-5 cells): 2.28 nM
B2: DOM1h-131-203 (protein, from a related filing)
VH: EVQLWESGGGLVQPGGSLRLSCAASGFTFAHETMVWVRQAPGKGLEWVSHIPPDGQDPFYADSVKGRFTISRDNSKNTLYLQMNSLRAEDTAVYYCALLPKRGPWIDYWGQGTLVTVSS

IC50 (IL-1R1): 0.257 nM
B5: DOM4-130-201 (protein, from a related filing)
VL: DIQMTQSPSSLSASVGDRVTITCRASQDIYLNLDWYQQKPGKAPKLLIKFGSELQSGVPSRFSGSGYGTDFTLTISNLQPEDFATYYCQPSFYFPYTFGQGTKVEIKW

IC50 (IL-1R1): 0.254 nM
B6: DOM4-130-202 (protein, from a related filing)
VL: DIQMTQSPSSLSASVGDRVTISCRASQDIYLNLDWYQQKPGKAPKLLISFGSELQSGVPSRFSGSGYGTDFTLTISSLQPEDSATYYCQPSFYYPYTFGQGTKVEIKR

Kd [12]: 14.6 nM | EC50 [16]: 3.58 nM
B8: DOM15-10-11 (protein, from a related filing)
VL: DIQMTQSPSSLSASVGDRVTITCRASQWIGPELRWYQQKPGKAPKLLIYHTSILQSGVPSRFSGSGSGTDFTLTISSLQPEDFATYYCQQYMFQPMTFGQGTKVEIRG
